Experimental data reported in patent publication US20200283521A1 (GRANULAR THERAPEUTICS, published 2020).

T1: hTWEAK-Fc (human, UniProt O43508)
T1 construct: Fc fusion; member of the panel m9
T1 sequence (looked up): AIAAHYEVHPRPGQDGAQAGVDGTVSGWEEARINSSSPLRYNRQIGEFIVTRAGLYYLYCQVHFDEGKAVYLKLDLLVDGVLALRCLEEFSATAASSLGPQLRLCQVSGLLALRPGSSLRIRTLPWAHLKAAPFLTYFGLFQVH

T2: hVCAM-Fc
T2 construct: member of the panel m9
T2 chain: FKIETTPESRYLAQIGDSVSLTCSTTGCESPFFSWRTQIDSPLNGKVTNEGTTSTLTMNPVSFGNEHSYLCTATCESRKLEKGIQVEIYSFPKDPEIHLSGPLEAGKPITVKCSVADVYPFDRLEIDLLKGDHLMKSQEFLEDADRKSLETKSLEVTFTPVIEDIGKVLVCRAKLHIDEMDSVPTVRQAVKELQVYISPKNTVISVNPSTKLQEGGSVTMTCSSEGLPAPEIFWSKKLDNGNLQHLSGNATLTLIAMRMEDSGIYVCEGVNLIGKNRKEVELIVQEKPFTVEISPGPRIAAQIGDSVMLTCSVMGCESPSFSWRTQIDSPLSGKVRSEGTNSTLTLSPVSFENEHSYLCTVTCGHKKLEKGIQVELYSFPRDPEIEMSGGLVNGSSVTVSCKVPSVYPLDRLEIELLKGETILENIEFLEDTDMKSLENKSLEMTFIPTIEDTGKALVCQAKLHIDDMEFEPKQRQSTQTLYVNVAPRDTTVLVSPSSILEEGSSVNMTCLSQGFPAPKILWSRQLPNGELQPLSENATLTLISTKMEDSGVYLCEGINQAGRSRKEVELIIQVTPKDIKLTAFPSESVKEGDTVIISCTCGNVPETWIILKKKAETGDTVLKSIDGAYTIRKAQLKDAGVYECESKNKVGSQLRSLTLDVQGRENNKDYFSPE

T3: hCMET-Fc (The natural ectodomain is cleaved by furin after residue 307 into disulfide-linked alpha and beta chains. It is given here as one continuous stretch.)
T3 construct: member of the panel m9
T3 chain: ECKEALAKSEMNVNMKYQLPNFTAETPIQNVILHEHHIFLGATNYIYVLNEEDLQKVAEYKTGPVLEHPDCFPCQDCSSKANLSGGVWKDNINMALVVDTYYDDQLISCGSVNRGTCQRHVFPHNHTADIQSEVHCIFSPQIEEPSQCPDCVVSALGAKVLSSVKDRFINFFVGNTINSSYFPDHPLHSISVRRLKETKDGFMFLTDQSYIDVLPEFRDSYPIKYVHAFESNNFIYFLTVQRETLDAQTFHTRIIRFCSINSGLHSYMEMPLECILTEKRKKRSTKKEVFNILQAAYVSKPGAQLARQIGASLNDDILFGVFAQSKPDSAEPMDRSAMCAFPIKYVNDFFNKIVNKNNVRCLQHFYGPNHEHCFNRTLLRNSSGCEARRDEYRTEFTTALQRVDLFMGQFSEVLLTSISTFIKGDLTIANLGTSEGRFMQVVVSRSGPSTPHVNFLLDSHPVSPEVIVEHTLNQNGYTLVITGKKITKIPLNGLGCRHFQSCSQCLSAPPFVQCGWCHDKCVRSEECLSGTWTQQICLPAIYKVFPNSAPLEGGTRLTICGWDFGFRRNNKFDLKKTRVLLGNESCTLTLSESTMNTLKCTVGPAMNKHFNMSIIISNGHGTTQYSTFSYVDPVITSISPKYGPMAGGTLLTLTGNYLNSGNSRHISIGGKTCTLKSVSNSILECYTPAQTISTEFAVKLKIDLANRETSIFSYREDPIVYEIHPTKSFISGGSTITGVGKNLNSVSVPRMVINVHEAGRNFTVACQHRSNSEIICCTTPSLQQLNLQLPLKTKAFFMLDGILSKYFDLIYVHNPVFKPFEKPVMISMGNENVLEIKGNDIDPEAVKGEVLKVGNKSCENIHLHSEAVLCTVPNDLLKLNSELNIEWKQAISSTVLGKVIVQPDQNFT

T4: hVCAM-1 (human, UniProt P19320)
T4 construct: purified recombinant protein; member of the panel m9
T4 sequence (looked up): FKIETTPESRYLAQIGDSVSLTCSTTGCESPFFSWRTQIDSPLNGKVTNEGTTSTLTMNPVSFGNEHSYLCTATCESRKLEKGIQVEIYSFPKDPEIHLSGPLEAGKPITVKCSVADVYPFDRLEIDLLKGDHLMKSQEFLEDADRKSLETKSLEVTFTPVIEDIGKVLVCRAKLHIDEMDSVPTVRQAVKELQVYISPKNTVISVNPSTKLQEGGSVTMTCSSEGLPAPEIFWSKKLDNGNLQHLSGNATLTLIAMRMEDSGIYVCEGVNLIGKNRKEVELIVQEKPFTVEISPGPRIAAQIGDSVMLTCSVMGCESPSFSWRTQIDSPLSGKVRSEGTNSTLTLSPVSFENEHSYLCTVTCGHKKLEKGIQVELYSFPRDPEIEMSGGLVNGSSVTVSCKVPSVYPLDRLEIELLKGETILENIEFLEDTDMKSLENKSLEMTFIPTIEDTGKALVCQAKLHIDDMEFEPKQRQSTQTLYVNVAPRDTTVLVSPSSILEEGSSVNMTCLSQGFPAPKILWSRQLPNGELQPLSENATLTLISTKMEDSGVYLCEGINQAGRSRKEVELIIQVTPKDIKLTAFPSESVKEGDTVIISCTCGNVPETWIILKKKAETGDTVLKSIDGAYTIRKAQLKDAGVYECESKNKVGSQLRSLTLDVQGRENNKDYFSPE


Experiments:
[1] = molecular target: T5, cynomolgus monkey C-KIT-Fc (cynomolgus monkey); test: HTRF competition vs Tb-h37M IgG1
T5 construct: also called cyno C-KIT-Fc
Description: Reagents were added sequentially into 384-well low-volume black plates (Nunc).

[2] = molecular target: T5, cynomolgus monkey C-KIT-Fc; test: direct titration ELISA on coated C-KIT-Fc, IgG1 format
Description: Direct titration ELISA for second-generation designer IgGs binding to human and cyno C-KIT-Fc proteins.
To coat Greiner Bio-One High bind ELISA plates, target proteins were diluted to 1 μg/ml in carbonate buffer and added at 100 μl per well, at 4° C., o/n. Coated plates were washed 3× with PBS pH7.4, blocked with 1% BSA in PBS (380 μl/well) for 1 hr at RT, then washed 3× with PBS-Tween 20 (PBST). C-KIT antibodies (100 μl/well; diluted in PBST) were then added and then incubated 1 hr at RT. Plates were then washed 3× with PBST and goat anti-human kappa chain-HRP added (100 μl/well) at RT, for 1 hr. Plates were then washed 3× with PBST and twice with PBS before the addition of 100 μl TMB per well. Reactions were stopped by adding 100 μl 2M H₂SO₄/well and OD was read on a plate reader at 450 nm.

[3] = molecular target: T1, hTWEAK-Fc; test: direct ELISA on coated protein, IgG1
[4] = molecular target: T6, hCD4 (human, UniProt P01730); test: direct ELISA on coated protein, IgG1
T6 construct: purified recombinant protein; member of the panel m9

[5] = molecular target: T7, hBAFFR-Fc (human, UniProt Q96RJ3); test: direct ELISA on coated protein, IgG1
T7 construct: Fc fusion; member of the panel m9

[6] = molecular target: T2, hVCAM-Fc; test: direct ELISA on coated protein, IgG1
[7] = molecular target: T3, hCMET-Fc; test: direct ELISA on coated protein, IgG1
[8] = molecular target: T4, hVCAM-1; test: direct ELISA on coated protein, IgG1
[9] = molecular target: T8, h4-1BB-Fc; test: direct ELISA on coated protein, IgG1
T8 construct: member of the panel m9
T8 sequence (chain, as listed by the source limits assumed): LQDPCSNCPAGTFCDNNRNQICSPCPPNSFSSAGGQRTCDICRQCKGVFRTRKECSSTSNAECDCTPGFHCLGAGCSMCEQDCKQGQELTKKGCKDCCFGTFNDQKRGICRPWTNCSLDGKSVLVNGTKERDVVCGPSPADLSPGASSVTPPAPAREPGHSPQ

T7 sequence (Q96RJ3 7-71 limits assumed): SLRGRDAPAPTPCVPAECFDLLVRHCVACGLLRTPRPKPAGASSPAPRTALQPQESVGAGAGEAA

| IC50 [1] [µg/mL] | EC50 (read off the curve) [2] [µg/mL] | binding result [3] | binding result [4] | binding result [5] | binding result [6] | binding result [7] | binding result [8] | binding result [9] | Binder |
| --- | --- | --- | --- | --- | --- | --- | --- | --- | --- |
| 0.036 | ~0.1 |  |  |  |  |  |  |  | MH5, human IgG1 (antibody, V domains shown, IgG1; also called C-KIT-MH5; C-KIT-MHS) VH: QVQLVQSGAEVKKPGASVKVSCKASGYTFTDYYMNWVRQAPGQGLEWMGRIYPGSGNTYYAQKFQGRVTMTRDTSTSTVYMELSSLRSEDTAVYYCARGVYYYDYWGQGTLVTVSS VL: DIQMTQSPSSLSASVGDRVTITCRASQGIRTNLAWFQQKPGKAPKSLIYSASSLQSGVPSRFSGSGSGTDFTLTISSLQPEDFATYYCQQYANYPRTFGGGTKVEIK |
|  |  | no binding (tested: 1 µg/ml) | no binding (tested: 1 µg/ml) | no binding (tested: 1 µg/ml) | no binding (tested: 1 µg/ml) | no binding (tested: 1 µg/ml) | no binding (tested: 1 µg/ml) | no binding (tested: 1 µg/ml) | humanized h37M, human IgG1 (antibody, V domains shown, human IgG1; terbium-labelled as the tracer of the HTRF assays; also called C-KIT-h37M; h37M-IgG1) VH: QVQLVQSGAEVKKPGASVKLSCKASGYTFTDYYINWVRQAPGKGLEWIARIYPGSGNTYYNEKFKGRATLTADKSTSTAYMQLSSLRSEDTAVYFCARGVYYFDYWGQGTTVTVSS VL: DIVMTQSPSSLSASVGDRVTITCKASQNVRTNVAWYQQKPGKAPKALIYSASYRYSGVPDRFTGSGSGTDFTLTISSLQPEDFADYFCQQYNSYPRTFGGGTKVEIK |
